Patent US5837813

Tests used:
[1] = molecular target: human fibronectin (human) (UniProt P02751)
[2] = molecular target: human fibronectin (human) (UniProt P02751); test: solid-phase competition, 125I-fibronectin on coated fibronectin
[3] = molecular target: human fibronectin (human) (UniProt P02751); test: solid-phase competition, 125I-14 kDa fragment on coated fibronectin

- ^125 I-fibronectin bound to IMR-90 cells after one hour [1]: 25%
- IC50 [2]: 200 to 300 µM
- fold less potent than P1 [3]: 100 fold
Binder: LISIQQYGHQEVTRFDFTTTSTSTPVTSNTV [polypeptide P3]
